Test results published in US8129349B2, “Treatment of disease by inducing cell apoptosis” (The Regents of the University of California, priority 2000, dated 2012).

How the values were obtained:
procaspase 1 = biological target: T1, procaspase 1 (Homo sapiens, UniProt P29466); assay: Co-immunoprecipitation of purified recombinant procaspase 1 with recombinant C/EBPβ peptides; assay type: binding; conditions: peptides 200 μM, procaspase 1 0.6 U, quantitated by densitometry
T1 construct: purchased Alexis Biochemicals 201-056
T1 sequence (P29466 1-404): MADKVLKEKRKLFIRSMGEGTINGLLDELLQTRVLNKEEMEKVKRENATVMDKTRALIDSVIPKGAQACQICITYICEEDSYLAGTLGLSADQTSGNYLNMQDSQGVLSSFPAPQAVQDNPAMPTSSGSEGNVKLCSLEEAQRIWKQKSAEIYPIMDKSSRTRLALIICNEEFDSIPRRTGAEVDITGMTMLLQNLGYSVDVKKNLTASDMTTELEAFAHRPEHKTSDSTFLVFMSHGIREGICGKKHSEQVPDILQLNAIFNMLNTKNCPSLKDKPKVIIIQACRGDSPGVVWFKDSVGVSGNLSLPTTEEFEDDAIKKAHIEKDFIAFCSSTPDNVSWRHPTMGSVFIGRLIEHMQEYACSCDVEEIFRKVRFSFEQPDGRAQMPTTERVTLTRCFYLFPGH
Method: (§1) FIG. 5 provides results showing the direct association of C/EBPβ-Glu^217 with procaspases 1 and 8. […] Enzyme activity was measured in the absence (control) or presence of C/EBPβ peptides (200 μM) for 2 h, using a procaspases 1 (1U) (not shown) and 8 (0.2 μg) activity assay. Values are presented as the mean±one half the range of duplicates. Panel C provides results for cells cultured on a collagen type I matrix and incubated with the indicated cell permeant, purified synthetic N-acetyl, C-aldehyde C/EBPβ tetra-peptides (10 μM) or with recombinant C/EBPβ-HA peptides as indicated, together with the Chariot reagent (Active Motif) for 4 h. Control cells were incubated without peptides (P<0.05 for all peptides containing Ala^217).
(§2) Purified recombinant C/EBPβ peptides, expressed as known in the art (See, Descombes et al., supra; and Buck et al. (1994), supra), and purified synthetic N-acetyl, C-aldehyde tetrapeptides (200 μM) (American Peptide Company) were assayed for their ability to inhibit the activity of purified human recombinant caspases 1 (catalogue # 201-056) and 8 (catalogue # 201-041-C005) (Alexis Biochemicals). The sequence of caspase 8 includes Ser217 through Asp479 cloned into an expression vector containing a 21 amino acid linker at the N-terminus. Thus, the prodomain (first 220 amino acids) is essentially missing. The fragment is cleaved at Asp385 and the active caspases are essentially identical to those identified in apoptotic cells (Stennicke and Salvesen, Meth. Enzymol., 322:91-100 (1997)). Caspase activity was determined by the release of the p-nitroaniline colorimetric (Alexis Biochemicals) substrate for caspase 1 (catalogue # 260-026) or 8 (catalogue # 260-045) within the linear part of the kinetic assay (Thornberry et al. (1997), supra; Stennicke and Salvesen, supra). Caspase 1 and 8 activity in cells was performed with colorimetric kits (catalogues # 850-211-K and 850-221-K) as described by the manufacturer (Alexis) (See also, Thornberry et al. (1997), supra). The caspase 8 inhibitor IETD was from Calbiochem (Catalogue # 218773).
To delineate the role of C/EBPβ on the activation of procaspases 1 and 8, the self-activation of recombinant procaspases 1 and 8 was induced in vitro (Wilson et al., supra; Margolin et al., supra; and Earnshaw et al., supra), and the effect of purified recombinant C/EBPβ peptides, produced as described previously (Descombes et al., supra; and Buck et al., (1994), supra) on this process was determined. Consistent with the in vivo results described above, C/EBPβ-HA-Glu^217 and C/EBPβ 216-253-HA-Glu^217, but not C/EBPβ-HA-Ala^217, peptides associated with procaspases 1 and 8 (See, FIG. 5, Panel A). […]

caspase 1 = biological target: T2, caspase 1 (Homo sapiens, UniProt P29466); assay: In vitro self-activation of recombinant caspase 1; assay type: biochemical; conditions: peptides 200 μM, 2 h, procaspase 1 (1U)
T2 construct: purchased Alexis Biochemicals 201-056
T2 sequence (P29466 120-404): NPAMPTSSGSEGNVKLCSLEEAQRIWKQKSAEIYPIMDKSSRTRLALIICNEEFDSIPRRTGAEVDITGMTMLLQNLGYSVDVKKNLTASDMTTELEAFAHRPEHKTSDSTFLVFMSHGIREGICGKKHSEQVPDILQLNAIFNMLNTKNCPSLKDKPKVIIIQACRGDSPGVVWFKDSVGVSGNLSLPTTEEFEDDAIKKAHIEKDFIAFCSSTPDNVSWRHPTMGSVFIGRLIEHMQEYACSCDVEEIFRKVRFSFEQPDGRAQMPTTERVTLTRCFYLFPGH
Method: as §1
as §2, with “The fragment is cleaved at Asp385 and the active caspases are essentially identical to those identified in apoptotic cells (Stennicke and Salvesen, Meth. Enzymol., 322:91-100 (1997)).” left out, “Caspase 1 and 8 activity in cells was performed with colorimetric kits (catalogues # 850-211-K and 850-221-K) as described by the manufacturer (Alexis) (See also, Thornberry et al. (1997), supra). The caspase 8 inhibitor IETD was from Calbiochem (Catalogue # 218773).” left out
(§3) To delineate the role of C/EBPβ on the activation of procaspases 1 and 8, the self-activation of recombinant procaspases 1 and 8 was induced in vitro (Wilson et al., supra; Margolin et al., supra; and Earnshaw et al., supra), and the effect of purified recombinant C/EBPβ peptides, produced as described previously (Descombes et al., supra; and Buck et al., (1994), supra) on this process was determined. […]

[1] = tested on: C/EBPβ-Ala^217 stellate cells; assay: Apoptosis of stellate cells from C/EBPβ-Ala^217 transgenic mice, Hoechst 33342 nuclear staining; assay type: cell-based, mouse; conditions: collagen type I; IETD or transfection 1 μg
Method: FIG. 2 provides results showing increased apoptosis in hepatic stellate cells from C/EBPβ^−/− and C/EBPβ-Ala^217 transgenic mice. […] Six hours after cultivation, an annexin-V-PE binding assay was performed (P<0.05 for C/EBPβ^−/− and C/EBPβ-Ala^217). […] Apoptotic cells are indicated with arrowheads.
Fluorescent labels were observed using a triple-channel fluorescence microscope. The fluorochromes utilized were FITC and Texas red (Molecular Probes). The number of annexin V (+) cells was determined by in vivo microscopy as known in the art (See, Rudel and Bokoch, supra) among all cells or those expressing the GFP indicator protein either co-transfected with C/EBPβ proteins, or alone. These values are reported herein as a percentage of annexin V (+) for cells expressing the transfected DNA. At least 1000 cells were analyzed per experimental point, including at least 100 cells expressing the transfected DNA (Buck and Chojkier, EMBO J., 15:1753-1765 (1996); Buck et al., (1994), supra; and Buck et al., (1999), supra). […] Nuclear morphology was analyzed by staining cells with Hoechst 33342 (Molecular Probes). […]

procaspase 8 = procaspase 8 (Homo sapiens, UniProt Q14790); assay: Co-immunoprecipitation of purified recombinant procaspase 8 with recombinant C/EBPβ peptides; assay type: binding; design: 21 amino acid linker (vector-derived) (N); purchased Alexis Biochemicals 201-041-C005; conditions: peptides 200 μM, procaspase 8 0.12 μg, quantitated by densitometry
Method: as §1
as §2, with “The fragment is cleaved at Asp385 and the active caspases are essentially identical to those identified in apoptotic cells (Stennicke and Salvesen, Meth. Enzymol., 322:91-100 (1997)).” left out, “Caspase 1 and 8 activity in cells was performed with colorimetric kits (catalogues # 850-211-K and 850-221-K) as described by the manufacturer (Alexis) (See also, Thornberry et al. (1997), supra). The caspase 8 inhibitor IETD was from Calbiochem (Catalogue # 218773).” left out
as §3

procaspase 8, sequence (Q14790 217-479): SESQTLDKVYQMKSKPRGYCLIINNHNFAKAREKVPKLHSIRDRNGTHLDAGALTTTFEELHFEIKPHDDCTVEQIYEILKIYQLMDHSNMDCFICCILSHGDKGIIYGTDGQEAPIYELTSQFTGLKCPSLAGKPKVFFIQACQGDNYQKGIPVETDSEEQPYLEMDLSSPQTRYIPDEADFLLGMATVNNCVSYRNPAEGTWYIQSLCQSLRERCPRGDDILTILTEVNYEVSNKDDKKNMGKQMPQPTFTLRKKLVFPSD

B1: C/EBPβ-Glu^217: modified murine C/EBPβ with mutation of Thr^217 to glutamic acid (SEQ ID NO:4), phosphorylation mimic (protein, listed as Mus musculus)
chain: MHRLLAWDAACLPPPPAAFRPMEVANFYYEPDCLAYGAKAARAAPRAPAAEPAIGEHERAIDFSPYLEPLAPAADFAAPAPAHHDFLSDLFADDYGAKPSKKPADYGYVSLGRAGAKAAPPACFPPPPPAALKAEPGFEPADCKRADDAPAMAAGFPFALRAYLGYQATPSGSSGSLSTSSSSSPPGTPSPADAKAAPAACFAGPPAAPAKAKAKKZVDKLSDEYKMRRERNNIAVRKSRDKAKMRNLETQHKVLELTAENERLQKKVEQLSRELSTLRNLFKQLPEPLLASAGHC
- Co-immunoprecipitation of procaspase 1, fold more than the Ala^217 peptides (procaspase 1): 7 fold
- Inhibition of in vitro self-activation of caspase 1 (caspase 1): inhibited the in vitro self-activation
- Block of apoptosis of C/EBPβ-Ala^217 stellate cells [1]: blocked
- Co-immunoprecipitation of procaspase 8, fold more than the Ala^217 peptides (procaspase 8): 12 fold
